Source: patent US20250340636A1 (Memorial Sloan Kettering, published 2025)

What was measured:
[1] = molecular target: T1, human CHL-1 (residues 25-1096 with a C-terminal 10xHis tag) (human, UniProt O00533 25-1096); assay: ELISA, plates coated with human CHL-1
T1 construct: range 25-1096; also called L1CAM-2; L1CAM2
T1 sequence: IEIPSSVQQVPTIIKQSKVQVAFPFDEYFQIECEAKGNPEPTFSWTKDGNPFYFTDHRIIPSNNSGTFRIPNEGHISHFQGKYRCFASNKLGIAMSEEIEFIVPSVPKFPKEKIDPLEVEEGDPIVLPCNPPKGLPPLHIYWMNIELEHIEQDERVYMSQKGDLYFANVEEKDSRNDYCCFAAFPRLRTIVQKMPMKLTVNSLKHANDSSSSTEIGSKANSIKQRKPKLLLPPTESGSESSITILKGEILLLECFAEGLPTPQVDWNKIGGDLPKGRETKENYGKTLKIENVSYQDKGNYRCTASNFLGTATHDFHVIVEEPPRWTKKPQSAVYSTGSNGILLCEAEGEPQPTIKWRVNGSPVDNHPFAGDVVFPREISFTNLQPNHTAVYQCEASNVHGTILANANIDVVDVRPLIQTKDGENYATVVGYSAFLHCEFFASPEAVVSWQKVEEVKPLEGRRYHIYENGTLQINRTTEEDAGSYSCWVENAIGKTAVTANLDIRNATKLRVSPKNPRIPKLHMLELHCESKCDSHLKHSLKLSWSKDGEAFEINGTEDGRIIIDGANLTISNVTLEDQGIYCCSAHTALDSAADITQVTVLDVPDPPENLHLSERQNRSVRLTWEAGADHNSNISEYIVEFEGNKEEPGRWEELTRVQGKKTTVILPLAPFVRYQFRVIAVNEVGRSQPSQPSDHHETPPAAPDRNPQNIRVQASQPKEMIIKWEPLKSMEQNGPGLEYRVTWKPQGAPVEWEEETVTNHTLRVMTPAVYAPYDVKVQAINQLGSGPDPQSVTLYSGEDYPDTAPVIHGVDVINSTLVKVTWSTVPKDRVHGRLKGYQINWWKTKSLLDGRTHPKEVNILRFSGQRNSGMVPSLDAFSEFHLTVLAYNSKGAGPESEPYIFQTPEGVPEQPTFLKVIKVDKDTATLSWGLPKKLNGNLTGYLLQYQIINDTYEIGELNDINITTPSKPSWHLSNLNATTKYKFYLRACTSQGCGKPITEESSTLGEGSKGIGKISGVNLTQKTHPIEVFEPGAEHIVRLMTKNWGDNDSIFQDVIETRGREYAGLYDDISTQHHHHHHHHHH
Text: Selectivity. […] These proteins are other members of the L1 family of cell adhesion proteins and have between 49% and 55% sequence similarity with L1CAM in the extracellular portion. […] Positive control antibodies were included for each homolog. […] Epitope. The extracellular portion of L1CAM contains six immunoglobulin-like (Ig) domains and five fibronectin type III (FN) domains. To narrow down the binding region of the development candidate mAbs, truncated versions of human L1CAM protein (Ig domain, residues 21-605; FN domain, residues 606-1116; each with a C-terminal 6×His tag) were recombinantly produced, followed by a BLI experiment to test binding at 50 and 100 nM. […] 6×His tag is set forth in SEQ ID NO: 316.

[2] = molecular target: T2, human L1CAM on cells (human, UniProt P32004 20-1257); assay: flow cytometry, MCF-7 cells, AlexaFluor 647 anti-human Fc secondary
T2 construct: Overexpressed on stably transfected HEK293T cells or endogenous on MCF-7 and MDA-MB-231 cells; also called HEK293T-hL1CAM
Experimental: (§1) Binding to L1CAM on Cells. […] Cells were then incubated with an AlexaFluor 647 goat anti-human Fc secondary antibody. After washing, the stained cells were analyzed by flow cytometry.
(§2) The binding curves for each antibody and cell line normalized to secondary antibody only staining (MFI ratio) are shown in FIGS. 14A-14C. EC50 values were determined by non-linear regression (Table 70). […] It is possible that differences in the conformation and oligomerization of L1CAM, depending on the surface expression level, contributed to the binding pattern. […] An avidity effect due to high levels of L1CAM surface expression may have contributed to the strong binding observed in this experiment.

[3] = molecular target: T2, human L1CAM on cells; assay: flow cytometry, HEK293T-hL1CAM cells, AlexaFluor 647 anti-human Fc secondary
Experimental: as §1, §2

[4] = molecular target: T3, mouse L1CAM on transiently transfected HEK293FT cells (mouse, UniProt P11627 20-1260); assay: flow cytometry, cells transfected with mouse L1CAM
T3 construct: whole, on cells; also called mouse L1CAM on cells

[5] = molecular target: T2, human L1CAM on cells; assay: flow cytometry, MDA-MB-231 cells, AlexaFluor 647 anti-human Fc secondary
Experimental: as §1, §2

[6] = molecular target: T4, extracellular domain of human L1CAM (isoform 1) fused to a poly-histidine tag via its carboxy terminus (human, UniProt P32004 20-1120); assay: BLI, His-tagged human L1CAM
T4 construct: Bought (Creative Biomart); also called L1CAM-His; huL1CAM protein
Experimental: (§3) Binding to L1CAM in Solution. Affinity to human L1CAM was measured by BLI using an Octet Red96e instrument. […] The data was prepared by reference well subtraction, and response curves were globally fit to a 1:1 Langmuir binding model.

[7] = molecular target: T2, human L1CAM on cells; assay: summary table; binding to cells overexpressing human L1CAM (HEK293T)
Experimental: as §1, §2

[8] = molecular target: T5, soluble cynomolgus monkey L1CAM, His-tagged, monomeric (cynomolgus monkey, UniProt A0A2K5URB5 20-1120); assay: BLI (Octet Red96e), His-tagged cynomolgus L1CAM on Ni-NTA biosensors, mAb as analyte, 1:1 fit
T5 construct: also called cyL1CAM protein; cynomolgus L1CAM-His
Experimental: (§4) Cross-reactivity to Cynomolgus Monkey L1CAM. Affinity to cynomolgus L1CAM was measured by BLI using an Octet Red96e instrument. […] The data was prepared by reference well subtraction, and response curves were globally fit to a 1:1 Langmuir binding model.

[9] = molecular target: T2, human L1CAM on cells; assay: summary table; binding to cells with endogenous L1CAM (MCF-7)
Experimental: as §1, §2

[10] = molecular target: T4, extracellular domain of human L1CAM …; assay: BLI (Octet Red96e), His-tagged human L1CAM on Ni-NTA biosensors, mAb as analyte, 1:1 fit
Experimental: as §3

[11] = molecular target: T6, soluble mouse L1CAM (monomer), His-tagged (mouse, UniProt P11627 20-1123, limits assumed); assay: BLI (Octet Red96e), His-tagged L1CAM on Ni-NTA biosensors, mAb as analyte
T6 construct: read as mouse
Experimental: Cross-reactivity to Mouse L1CAM. Affinity to mouse L1CAM was measured by BLI using an Octet Red96e instrument. […] The data was prepared by reference well subtraction, and response curves were globally fit to a 1:1 Langmuir binding model.

[12] = molecular target: T2, human L1CAM on cells; assay: summary table; binding to cells with endogenous L1CAM (MDA-MB-231)
Experimental: as §1, §2

[13] = molecular target: T5, soluble cynomolgus monkey L1CAM, …; assay: summary table; soluble cynomolgus monkey L1CAM (monomer)
Experimental: as §4

[14] = molecular target: T4, extracellular domain of human L1CAM …; assay: summary table; binding to soluble human L1CAM (monomer)
Experimental: as §3

[15] = molecular target: T5, soluble cynomolgus monkey L1CAM, …; assay: BLI, cynomolgus against human L1CAM-His
Experimental: as §4

T4 sequence (P32004 20-1120): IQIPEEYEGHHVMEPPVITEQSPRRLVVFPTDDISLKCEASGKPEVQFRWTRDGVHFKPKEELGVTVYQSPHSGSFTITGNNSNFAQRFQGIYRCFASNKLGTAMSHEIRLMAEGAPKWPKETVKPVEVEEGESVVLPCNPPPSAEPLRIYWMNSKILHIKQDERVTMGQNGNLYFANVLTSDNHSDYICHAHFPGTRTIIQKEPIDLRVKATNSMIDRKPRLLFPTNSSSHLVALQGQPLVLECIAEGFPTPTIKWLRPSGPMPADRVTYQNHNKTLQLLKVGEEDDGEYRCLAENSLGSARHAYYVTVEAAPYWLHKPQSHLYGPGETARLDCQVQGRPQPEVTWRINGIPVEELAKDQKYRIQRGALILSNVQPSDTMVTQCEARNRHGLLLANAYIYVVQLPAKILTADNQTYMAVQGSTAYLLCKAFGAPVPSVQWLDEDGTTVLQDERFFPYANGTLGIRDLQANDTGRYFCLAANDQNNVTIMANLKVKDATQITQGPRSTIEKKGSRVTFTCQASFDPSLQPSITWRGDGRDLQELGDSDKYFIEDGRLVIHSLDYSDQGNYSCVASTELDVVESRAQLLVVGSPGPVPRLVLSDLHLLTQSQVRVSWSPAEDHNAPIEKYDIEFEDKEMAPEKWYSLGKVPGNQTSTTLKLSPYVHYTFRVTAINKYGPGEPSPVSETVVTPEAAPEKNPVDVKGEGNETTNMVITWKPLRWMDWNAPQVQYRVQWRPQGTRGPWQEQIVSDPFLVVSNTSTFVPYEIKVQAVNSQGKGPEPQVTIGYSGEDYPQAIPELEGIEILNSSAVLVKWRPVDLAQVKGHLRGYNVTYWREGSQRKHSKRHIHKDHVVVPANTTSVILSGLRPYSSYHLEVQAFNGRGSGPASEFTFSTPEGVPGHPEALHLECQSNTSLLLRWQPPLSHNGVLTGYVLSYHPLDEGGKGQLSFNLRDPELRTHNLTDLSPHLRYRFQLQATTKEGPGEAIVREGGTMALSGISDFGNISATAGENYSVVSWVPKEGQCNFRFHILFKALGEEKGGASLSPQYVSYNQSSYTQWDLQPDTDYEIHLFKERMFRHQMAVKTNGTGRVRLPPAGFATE
T2 sequence (P32004 20-1257): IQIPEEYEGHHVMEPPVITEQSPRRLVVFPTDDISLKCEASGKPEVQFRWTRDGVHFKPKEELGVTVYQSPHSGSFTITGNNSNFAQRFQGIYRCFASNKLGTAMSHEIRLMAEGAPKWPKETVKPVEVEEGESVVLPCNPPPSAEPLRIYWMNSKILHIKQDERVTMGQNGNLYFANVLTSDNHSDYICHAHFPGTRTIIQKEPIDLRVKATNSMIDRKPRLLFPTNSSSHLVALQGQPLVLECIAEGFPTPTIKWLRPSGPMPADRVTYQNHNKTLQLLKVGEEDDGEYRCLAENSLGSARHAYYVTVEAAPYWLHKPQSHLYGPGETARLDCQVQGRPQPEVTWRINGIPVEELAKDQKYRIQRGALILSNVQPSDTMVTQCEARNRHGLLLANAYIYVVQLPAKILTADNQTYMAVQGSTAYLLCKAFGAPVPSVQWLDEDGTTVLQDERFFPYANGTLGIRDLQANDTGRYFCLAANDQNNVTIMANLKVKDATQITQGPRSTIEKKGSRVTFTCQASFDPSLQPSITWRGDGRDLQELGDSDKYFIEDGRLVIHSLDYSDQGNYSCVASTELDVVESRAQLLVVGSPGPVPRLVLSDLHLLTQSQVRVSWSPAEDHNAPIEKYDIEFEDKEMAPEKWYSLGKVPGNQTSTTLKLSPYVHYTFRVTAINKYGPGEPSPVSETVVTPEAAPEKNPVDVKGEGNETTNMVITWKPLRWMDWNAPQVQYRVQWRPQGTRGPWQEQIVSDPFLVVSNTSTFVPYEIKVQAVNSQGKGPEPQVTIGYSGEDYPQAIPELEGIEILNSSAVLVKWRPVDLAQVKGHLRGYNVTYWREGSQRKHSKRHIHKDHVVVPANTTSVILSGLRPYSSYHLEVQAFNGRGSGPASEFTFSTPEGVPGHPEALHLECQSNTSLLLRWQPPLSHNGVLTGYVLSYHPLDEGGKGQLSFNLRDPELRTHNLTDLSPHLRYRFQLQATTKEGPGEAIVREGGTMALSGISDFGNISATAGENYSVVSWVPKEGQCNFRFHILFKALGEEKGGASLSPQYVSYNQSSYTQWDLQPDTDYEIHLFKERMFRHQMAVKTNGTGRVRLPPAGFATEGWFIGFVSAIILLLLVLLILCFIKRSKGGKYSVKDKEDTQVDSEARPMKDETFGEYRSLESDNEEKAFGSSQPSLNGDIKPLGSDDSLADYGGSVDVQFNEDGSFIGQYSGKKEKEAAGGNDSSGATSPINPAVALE
T3 sequence (P11627 20-1260): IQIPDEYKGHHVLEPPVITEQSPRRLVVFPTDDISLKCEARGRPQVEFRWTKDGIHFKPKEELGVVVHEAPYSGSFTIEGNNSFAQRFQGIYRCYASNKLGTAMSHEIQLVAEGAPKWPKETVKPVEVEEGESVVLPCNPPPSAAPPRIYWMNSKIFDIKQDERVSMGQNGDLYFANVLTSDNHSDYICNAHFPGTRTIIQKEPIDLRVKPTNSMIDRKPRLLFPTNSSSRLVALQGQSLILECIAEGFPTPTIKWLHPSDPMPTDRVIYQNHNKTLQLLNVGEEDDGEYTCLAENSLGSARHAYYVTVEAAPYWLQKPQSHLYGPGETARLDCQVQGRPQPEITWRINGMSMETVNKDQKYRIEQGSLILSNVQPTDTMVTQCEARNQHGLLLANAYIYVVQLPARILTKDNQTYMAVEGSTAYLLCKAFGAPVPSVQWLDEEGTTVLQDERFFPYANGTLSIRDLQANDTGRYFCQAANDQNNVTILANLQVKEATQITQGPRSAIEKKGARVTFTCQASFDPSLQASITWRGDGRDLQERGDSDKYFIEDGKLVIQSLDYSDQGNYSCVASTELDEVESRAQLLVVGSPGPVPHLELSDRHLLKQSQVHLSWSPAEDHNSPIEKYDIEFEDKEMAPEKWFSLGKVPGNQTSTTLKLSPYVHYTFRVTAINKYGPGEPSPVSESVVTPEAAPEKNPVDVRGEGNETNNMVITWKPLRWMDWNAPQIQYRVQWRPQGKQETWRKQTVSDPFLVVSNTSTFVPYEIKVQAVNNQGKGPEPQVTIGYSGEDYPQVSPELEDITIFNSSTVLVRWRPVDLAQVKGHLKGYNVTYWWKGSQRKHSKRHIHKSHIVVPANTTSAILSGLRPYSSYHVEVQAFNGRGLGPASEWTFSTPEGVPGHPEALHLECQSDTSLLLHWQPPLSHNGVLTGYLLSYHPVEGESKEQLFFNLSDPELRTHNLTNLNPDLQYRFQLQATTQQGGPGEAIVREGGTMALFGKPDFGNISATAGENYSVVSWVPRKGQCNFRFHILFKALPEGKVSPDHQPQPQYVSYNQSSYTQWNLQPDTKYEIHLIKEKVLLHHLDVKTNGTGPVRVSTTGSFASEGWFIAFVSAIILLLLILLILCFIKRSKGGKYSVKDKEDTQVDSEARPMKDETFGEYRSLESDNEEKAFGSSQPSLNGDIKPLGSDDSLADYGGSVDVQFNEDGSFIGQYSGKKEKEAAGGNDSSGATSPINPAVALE
T6 sequence (P11627 20-1123 limits assumed): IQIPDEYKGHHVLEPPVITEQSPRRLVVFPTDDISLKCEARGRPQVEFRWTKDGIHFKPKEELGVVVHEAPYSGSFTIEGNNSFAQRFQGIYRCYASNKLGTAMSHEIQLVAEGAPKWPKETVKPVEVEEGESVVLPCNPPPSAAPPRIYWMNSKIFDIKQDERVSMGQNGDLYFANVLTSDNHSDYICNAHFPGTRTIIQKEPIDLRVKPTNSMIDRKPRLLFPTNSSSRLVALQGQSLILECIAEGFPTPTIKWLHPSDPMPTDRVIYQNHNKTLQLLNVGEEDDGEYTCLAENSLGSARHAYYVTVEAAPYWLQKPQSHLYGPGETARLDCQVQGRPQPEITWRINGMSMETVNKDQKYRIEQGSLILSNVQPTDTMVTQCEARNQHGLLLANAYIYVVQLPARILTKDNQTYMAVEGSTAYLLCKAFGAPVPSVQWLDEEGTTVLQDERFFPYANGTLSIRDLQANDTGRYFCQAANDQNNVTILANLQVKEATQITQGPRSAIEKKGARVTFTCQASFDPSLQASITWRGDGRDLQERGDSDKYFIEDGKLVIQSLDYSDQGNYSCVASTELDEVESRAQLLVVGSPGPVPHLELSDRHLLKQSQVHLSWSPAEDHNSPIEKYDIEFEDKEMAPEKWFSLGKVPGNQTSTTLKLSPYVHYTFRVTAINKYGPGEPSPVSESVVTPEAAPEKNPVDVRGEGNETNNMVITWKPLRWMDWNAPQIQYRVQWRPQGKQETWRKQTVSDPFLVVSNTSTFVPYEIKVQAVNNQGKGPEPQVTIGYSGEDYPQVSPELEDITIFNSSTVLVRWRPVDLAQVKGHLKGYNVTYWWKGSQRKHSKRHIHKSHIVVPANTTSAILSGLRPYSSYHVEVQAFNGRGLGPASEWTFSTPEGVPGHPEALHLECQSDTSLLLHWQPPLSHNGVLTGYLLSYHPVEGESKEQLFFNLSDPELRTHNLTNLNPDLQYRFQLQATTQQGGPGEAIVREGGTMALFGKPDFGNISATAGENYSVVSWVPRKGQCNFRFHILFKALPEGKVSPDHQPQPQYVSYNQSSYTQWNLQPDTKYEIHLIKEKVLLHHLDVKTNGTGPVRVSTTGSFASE

B1: TDI-Y-004 (antibody, human IgG1, kappa, V domains shown)
VH: QVQLVQSGAEVKKPGSSVKVSCKASGYTFTNYYIHWVRQAPGQGLEWMGKIGPGSGSPYYQGMFKDRVTITADESTSTAYMELSSLRSEDTAVYYCARWLLPFDYWGQGTLVTVSS
VL: EIVLTQSPGTLSLSPGERATLSCRASSSVNYMHWYQQKPGQAPRLLIYATSILASGIPDRFSGSGSGTDYTLTISRLEPEDFAVYYCQQFSSDPLTFGGGTKVEIKR
notes: Human IgG1, kappa; also called humanized 143G03 (N61Q) mAb; hz143G03 (N61Q)
binding result [1]: no binding (tested: 1 µM)
EC50 [2]: 1.3 nM
EC50 [3]: 2.2 nM
binding result [4]: no binding
EC50 [5]: 2.5 nM
fold difference in KD against TDI-Y-005 [6]: ~10 fold
EC50 [7]: 2.2 nM
Kd [8]: 0.3 nM
koff [8]: 4.7e-05 s⁻¹
kon [8]: 160000 M⁻¹ s⁻¹
EC50 [9]: 1.3 nM
Kd [10]: 0.35 nM
koff [10]: 9.5e-05 s⁻¹
kon [10]: 270000 M⁻¹ s⁻¹
binding result [11]: no binding (tested: dilution series starting at 50 nM)
EC50 [12]: 2.5 nM
Kd [13]: 0.3 nM
koff [13]: 4.7e-05 s⁻¹
kon [13]: 160000 M⁻¹ s⁻¹
Kd [14]: 0.35 nM
koff [14]: 9.5e-05 s⁻¹
kon [14]: 270000 M⁻¹ s⁻¹
fold difference of KD against human L1CAM [15]: ≤ 1.2 fold
